Data reported in US8084213, “Selection” (Domantis Limited).

Assays:
[1] = target: T1, scArc-HA (pIE3 series, single-chain Arc repressor dimer) (Phage P22); assay: co-capture of DNA on anti-HA 3F10 surface, PCR detection; settings: tags: C-terminal HA; chain copies: 2 scArc per operator (stated)
T1 chain: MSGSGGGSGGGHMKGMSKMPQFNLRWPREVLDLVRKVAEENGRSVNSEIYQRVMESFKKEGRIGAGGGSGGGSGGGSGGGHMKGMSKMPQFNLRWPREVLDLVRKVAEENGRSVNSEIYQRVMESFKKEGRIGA
Experimental: (§1) In a typical solution expression experiment 1 μl of 1.7 nM template in 0.2 mg/ml tRNA is added to 25 μl EcoPro T7 in vitro translation mix Novagen), supplemented with 0.75 μl of 100 mM oxidized glutathione (Sigma), and incubated at 25° C. for four hours. During the translation reaction the streptavidin-coated PCR tubes, cut from Strep Thermofast 96-well plates (Abgene), are first incubated at room temperature for three hours with 50 μl of at least 40 nM biotinylated target protein in PBS. The coating buffer is thereafter removed and any remaining free biotin-binding sites are blocked with a 15 min pulse of 50 μg/ml biotinylated BSA in PBS. The pre-coated wells are thereafter three times washed with PBS and then filled with 100 μl of binding buffer C+ (100 mM KCl, 20 mM Tris, 5 mM MgCl_2, 0.05% Tween 20, 0.05 mM EDTA, 1% BSA). Upon completion of the translation reaction the products are diluted in Buffer C+ and applied to the pre-coated and blocked PCR tubes, allowed to bind for 30 min at room temperature and washed 4 times with 150 μl of Buffer C+. […]

scArc-Vk(E5)-HA = scArc-Vk(E5)-HA (Phage P22 / human Vk); assay: co-capture PCR; settings: tags: C-terminal Vk(E5) dAb fusion, chain copies: 2 scArc per operator (stated)
Experimental: Tubes from Strep Thermofast 96-well plates are coated by applying 2 µl of 0.05 mg/ml biotinylated rat anti-HA mAb (clone 3F10, Roche), 0.2 µl of 0.5 mg/ml biotinylated protein L (Pierce), 1 µl of biotinylated 1 mg/ml β-galactosidase or 0.1 µl of 5 mg/ml biotinylated BSA (Sigma) respectively in 50 µl aliquots of PBS and incubating for 3 hours at room temperature. The monoclonal high-affinity α-HA mAb 3F10 recognises the C-terminal HA tag, β-galactosidase and protein L can be expected to interact with the $V_\kappa$(E5) light chain domain, while BSA serves as the negative control. At the end of the incubation the coating solution is removed and the first blocking solution consisting of 150 µl of 10 ng/ml biotinylated BSA (Sigma) in PBS is added to the wells and incubated for 15 minutes. At the end of the incubation the wells are washed three times with 150 µl of PBS and blocked additionally for 30 min at room temperature with buffer C+.
25 µl S30 in vitro translation reactions (EcoPro T7, Novagen) are assembled according to the manufacturer's instructions and supplemented with 1.5 µl of 1.7 mM PCR-amplified template in 0.1 mg/ml RNA and 0.75 µl of 100 mM oxidized glutathione. […]
The PCR amplification products are analysed by 1% agarose gel electrophoresis in TAE in the presence of ethidium bromide and imaged using GeneGeius Bio Imaging System (Syngene). […]

[2] = target: T2, scArc-HA (pIE2 series, single-chain Arc repressor dimer) (Phage P22); assay: co-capture of DNA on anti-HA 3F10 surface, PCR detection; buffer C+ 100 mM KCl, 5 mM MgCl2, room temp; settings: tags: C-terminal HA; chain copies: 2 scArc per operator (stated)
T2 chain: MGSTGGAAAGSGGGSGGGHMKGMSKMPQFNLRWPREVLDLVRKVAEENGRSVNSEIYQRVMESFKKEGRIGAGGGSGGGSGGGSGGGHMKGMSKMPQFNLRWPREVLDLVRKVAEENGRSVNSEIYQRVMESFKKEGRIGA
Experimental: as §1

Measured: binding result

B1: Arc operator, one copy, on linear genetic element (dsDNA)
DNA 1: ATGATAGAAGCACTCTACTAT
DNA 2: ATAGTAGAGTGCTTCTATCAT
binds: [1] | scArc-Vk(E5)-HA | [2]
